Variants at the floor of the assay were thinned out.
B1: TPR 5TU (parent)
chain: GGAUCUUCUCGAUCUAACAAAAAAGACAAAUCUGCCACAAAGCUUGAGAGCAUCUUCGGAUGCAGAGGCGGCAGCCUUCGGUGGCGCGAUAGCGCCAACGUUCUCAACUAUGACACGCAAAACGCGUGCUCCGUUGAAUGGAGUUUAUCAUG

Variants of: B1
Assay: polymerase ribozyme fitness, log enrichment relative to wild type (log ratio); higher = more active; in vitro selection for triplet polymerase activity
In short: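 Input and output libraries were sequenced on Illumina after a single in vitro selection round, run in triplicate on PCR-built, transcribed mutant libraries of each subunit of a heterodimeric triplet polymerase ribozyme. Selection annealed libraries to a biotinylated primer, the partner subunit and triplets, incubated them frozen at −7 °C, then gel-excised extended constructs for streptavidin-bead capture and RT-PCR. Genotypes with ≥10 input reads and ≥1 read per output were kept. Fitness is the logarithm, taken in base 2, of genotype enrichment divided by wild-type enrichment, using inverse-variance-weighted replicate averages.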

| Variant | polymerase ribozyme fitness (log ratio) |
| --- | --- |
| C54G G81A C95U | -2.33 |
| C54U U55A A98U U144A | -1.24 |
| C54G G58A A89U A98G G133C | -2.63 |
| U55A G65U G70U C87A C95U A98G A137C G141A G143C | ≤ -4.2 |
| U55G A73G | -0.595 |
| C54U C118U U145A | -0.457 |
| U53G U61A C85U G94U A97U G152A | ≤ -4.2 |
| C54A C123G | -1.63 |
| C54A C123U | -0.754 |
| U53G G94A | -4.1 |
| U53A G59C C87U C96A A113G C125U | ≤ -4.2 |
| C54U C87A A89G C96U A121U A142C | ≤ -4.2 |
| U53A U55G C85A C95U A121C | ≤ -4.2 |
| C54A G143C | -2.81 |
| U55A G81A C87U G136A | 0.0612 |
| C54A G86U C105U | -2.87 |
| U53G U55G C75U C76U G83A U135A | ≤ -4.2 |
| U55A C85A C93G | ≤ -4.2 |
| C54A C85G | -3 |
| C54A G83C C85A | ≤ -4.2 |
| U55A G86U | -1.44 |
| U55A G86A | -1.59 |
| U55A G83U A137G | -2.28 |
| U55A C118G A147U | 0.0992 |

| Variant | polymerase ribozyme fitness (log ratio) |
| --- | --- |
| U53A C69U | -4.11 |
| C54A G83A C99U | -3.7 |
| U53A C118U | -1.08 |
| U53C C54U | -1.25 |
| C54G C96G G128U | ≤ -4.2 |
| C54U G58A C93U | -1.1 |
| U55A G59A U61C U135C A142G | -3.84 |
| U53A G100A | ≤ -4.2 |
| U55A C79A | ≤ -4.2 |
| C54G G80C A89G C93A | ≤ -4.2 |
| C54A C132U | -2.3 |
| U53A C96U C114G | -4.15 |
| C54U U55A C87A | ≤ -4.2 |
| U53C U139G | 0.0757 |
| C54A A89G | -2.13 |
| C54G U56G G92A | ≤ -4.2 |
| C54G G141A | -1.35 |
| C54U C93A | -2.6 |
| C54U A142U | -0.665 |
| U53A U55A C129U | -3.06 |
| U55A G59A C116A | 2.35 |
| U55A A73G U135A U146C | -0.581 |
| C54G G84C U109C U134G U148A | ≤ -4.2 |
| C54A G70U A91U C114U A119U A120U | ≤ -4.2 |

| Variant | polymerase ribozyme fitness (log ratio) |
| --- | --- |
| U55A G128C U146A | -4.09 |
| U53C U55C C105U | -1.88 |
| U53A C85U C105G | ≤ -4.2 |
| U55C C85A A119G A137U | ≤ -4.2 |
| C54A C85G G124U | -3.78 |
| C54U G59A A106G | 0.342 |
| U53A G86C A91U G136A | ≤ -4.2 |
| C54G C103U | -2.16 |
| U53A G70C C149G | ≤ -4.2 |
| C54U U56A G84U | -0.698 |
| C54G G71C C85U C93U U144G | ≤ -4.2 |
| U55A G59U C87U | -2.31 |
| U55C A91G | -3.06 |
| C54U C76G A89C A91G G94U U146G | ≤ -4.2 |
| C54U U82A | -0.0444 |
| U53A C54U C57A G62A C85A G126U | ≤ -4.2 |
| U55A C57G | -0.56 |
| C54A U90G | ≤ -4.2 |
| U53A G58A C76U C103G A150U | ≤ -4.2 |
| C54U C85U C116A | 0.743 |
| U55A C57A C93U G126U | -0.627 |
| U53C C57U A60G C69A A97U G141A U146C | -0.526 |
| C54A U56A C96U C105U G126A | -2.51 |
| U53G A91G | -3.94 |

| Variant | polymerase ribozyme fitness (log ratio) |
| --- | --- |
| C54U A73C G94U C116G C125A U134A | ≤ -4.2 |
| U53G C123A G126C | -1.32 |
| U53A G133U | -3.53 |
| U55C C57A A73G C96U A121C C131U | 1.56 |
| C54U U55A C93U | -0.48 |
| U55A A66G G86A A97G U146G | ≤ -4.2 |
| U53A C96U C118A | -1.21 |
| U53C U56A G58A C76A A120G U134C | -3.01 |
| U55A C85A U102A | ≤ -4.2 |
| U55A C116U | -0.684 |
| U53A U56A C105U | -1.66 |
| U55C G59C A107C C131U U134G G136C | ≤ -4.2 |
| C54A G86U U101G | -3.14 |
| U53C C116G | 0.204 |
| C54U G68A A97G G124A U144C | -3.84 |
| U53A U151G | ≤ -4.2 |
| U53C A122G | -0.671 |
| U55A G92U G124C | -0.918 |
| U53A C85A A89C | -3.89 |
| U55A G68A G86U U90A A97U U101A A137C U145C | ≤ -4.2 |
| U55A G59C | 0.269 |
| U53A C57A | -0.577 |
| U53A C57U | -1.2 |
| C54U G80U | -0.459 |

| Variant | polymerase ribozyme fitness (log ratio) |
| --- | --- |
| C54A C87U C93G U134G U135A | ≤ -4.2 |
| U55A A97G C116A | 1.12 |
| U55A G62C G68U C96U A121U | ≤ -4.2 |
| U55A G83A C105G C118A | -3.78 |
| C54G G86U U135A U139A | ≤ -4.2 |
| U55A G88A | ≤ -4.2 |
| U55A G58U C79U G88A A106G | ≤ -4.2 |
| U55A A89U | -0.224 |
| C54G A64G G94A G100U C105A | ≤ -4.2 |
| C54G G74C G80A C96U A138U | ≤ -4.2 |
| U53A U55G A64U C75U A91C C116U U144A | ≤ -4.2 |
| C54G C57A G58C G94A | -0.504 |
| C54A A89G U90A C99G | ≤ -4.2 |
| C54A U56A G67U C85A G88A U101G G141C | ≤ -4.2 |
| C54U C76U C87U U127A U139C A142U C149G | ≤ -4.2 |
| C54G C87U G143C | -3.99 |
| C54U G58A G94U | -0.705 |
| U55A A120U | -0.857 |
| U53A C75U C103U | -3.14 |
| U55A G84U G124A | -1.26 |
| C54U C85U A98G U134A | -3.35 |
| U53A G83U | -0.881 |
| C54U U56A A60G G84U G126U | -1.81 |
| U53A G67C C85U U109G A115U | ≤ -4.2 |

| Variant | polymerase ribozyme fitness (log ratio) |
| --- | --- |
| C54U C76A C96A U127C G136A | -3.34 |
| U55A A60G U102A U148A | -3.91 |
| U55C C95A C96G G117C | -2.16 |
| C54U U55A A120G G143U | -2.38 |
| C54A A91U C108U G124U A138C G141A | ≤ -4.2 |
| U53A C96A C125U | -1.41 |
| C54A G81A | -1.07 |
| U53G G59C A147C | -0.875 |
| C54A U56A C118U | -2.14 |
| C54A G58U C99A U145A | -2.04 |
| C54A C57G A60U C87U C95U G136A | -4.11 |
| U55C A91U U144A | ≤ -4.2 |
| C54A C85U C108U | ≤ -4.2 |
| U53A G68U G88U U90C | ≤ -4.2 |
| C54U A97U A107C | ≤ -4.2 |
| C54A C95A | -1.25 |
| C54A U82A U134A U146C | -3.03 |
| U55A G62C G117A C131G | ≤ -4.2 |
| U55G C57A G59C C85A A115G A119U | -2.01 |
| U53A C85A G124A | -2.89 |
| U53A C93U | -2.51 |
| C54U A97G C99G U135G | -3.75 |
| U53G G58C G92A C125G A150C | ≤ -4.2 |
| U53G C95U U139G | -1.58 |

| Variant | polymerase ribozyme fitness (log ratio) |
| --- | --- |
| C54U G59A C76A C85U | 0.107 |
| U55A U56A C57A C85U G86A C103G | ≤ -4.2 |
| U55A C85A | -2.26 |
| U55A C85G | -2.99 |
| U55A C96A A107C C116A G124C U151A | ≤ -4.2 |
| C54U C75U | -0.0882 |
| U53A U61A | -1.15 |
| U53A U61G | -0.814 |
| C54G U55A G94U A98C A150G | -3.84 |
| U55A U109G | -1.03 |
| U55A U82G G92A C103U G124A | -3.62 |
| U55A A97G | -0.39 |
| U55A C57A G59C G80U A91U | ≤ -4.2 |
| U53C C95U C125U A147U U148A U151G | ≤ -4.2 |
| U55A U61G | -3.71 |
| U53A U109G C116A G136C U144C | -4.07 |
| U53A U78A C85U U102C | ≤ -4.2 |
| U55A A91U C108A U130C G133U | ≤ -4.2 |
| U53A C149G | -3.71 |
| U53A C79A | ≤ -4.2 |
| U55A U148A | -3.84 |
| U55A A106G A113U G136C | ≤ -4.2 |
| U53G C85G | -3.69 |
